Biological target: PIN1 HL-1, fragment of the PIN1 hydrophilic loop, amino acids 289-451 (Arabidopsis thaliana) (UniProt Q9C6B8)
Test: AUC; sedimentation velocity, 42,000 rpm, 20 °C, 50 mM NaP pH 7.4, 150 mM NaCl, absorbance at 280 nm, c(s) distribution (SEDFIT); PIN1 HL-1 at 1.26 mg/mL; monomer to dimer

- stoichiometry N: 2
Substance: PIN1 HL-1, fragment of the PIN1 hydrophilic loop, amino acids 289-451 (from UniProt Q9C6B8 289-451) (domain or fragment)
